From paper PMC11570694

Legend:
[1] = biological target: endogenous TTC5 of rabbit reticulocyte lysate (rabbit (endogenous in rabbit reticulocyte lysate)) (UniProt G1SNQ6); assay: cross-linking; competition: porcine brain tubulin at the indicated concentrations added to isolated β-tubulin 94-mer RNCs (Bpa at position 7) carrying endogenous TTC5, 10 min on ice in PSB, then UV; autoradiography, anti-TTC5 immunoprecipitation
[2] = biological target: recombinant TTC5 labelled with Oregon Green 488 maleimide (human) (UniProt Q8N0Z6); assay: MST; 50 nM Oregon Green 488-labelled TTC5 with various porcine tubulin concentrations in 250 mM NaCl, 1 mM TCEP, 20 mM HEPES pH 7.4; duplicates
recombinant TTC5 labelled with Oregon Green 488 maleimide (human), sequence (Q8N0Z6 whole entry): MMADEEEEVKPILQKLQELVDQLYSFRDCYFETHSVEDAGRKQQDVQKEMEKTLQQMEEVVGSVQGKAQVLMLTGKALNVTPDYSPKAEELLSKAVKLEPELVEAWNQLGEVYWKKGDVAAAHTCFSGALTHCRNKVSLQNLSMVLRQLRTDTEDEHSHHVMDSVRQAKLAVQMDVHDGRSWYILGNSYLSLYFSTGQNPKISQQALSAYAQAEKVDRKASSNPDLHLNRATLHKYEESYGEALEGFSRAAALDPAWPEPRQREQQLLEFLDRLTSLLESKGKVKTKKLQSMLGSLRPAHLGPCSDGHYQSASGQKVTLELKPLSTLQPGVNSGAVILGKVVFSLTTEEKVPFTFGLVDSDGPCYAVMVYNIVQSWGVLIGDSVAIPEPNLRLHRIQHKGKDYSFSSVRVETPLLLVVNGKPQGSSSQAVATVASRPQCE

endogenous TTC5 of rabbit reticulocyte lysate (rabbit (endogenous in rabbit reticulocyte lysate)), sequence (G1SNQ6 entry or part of it): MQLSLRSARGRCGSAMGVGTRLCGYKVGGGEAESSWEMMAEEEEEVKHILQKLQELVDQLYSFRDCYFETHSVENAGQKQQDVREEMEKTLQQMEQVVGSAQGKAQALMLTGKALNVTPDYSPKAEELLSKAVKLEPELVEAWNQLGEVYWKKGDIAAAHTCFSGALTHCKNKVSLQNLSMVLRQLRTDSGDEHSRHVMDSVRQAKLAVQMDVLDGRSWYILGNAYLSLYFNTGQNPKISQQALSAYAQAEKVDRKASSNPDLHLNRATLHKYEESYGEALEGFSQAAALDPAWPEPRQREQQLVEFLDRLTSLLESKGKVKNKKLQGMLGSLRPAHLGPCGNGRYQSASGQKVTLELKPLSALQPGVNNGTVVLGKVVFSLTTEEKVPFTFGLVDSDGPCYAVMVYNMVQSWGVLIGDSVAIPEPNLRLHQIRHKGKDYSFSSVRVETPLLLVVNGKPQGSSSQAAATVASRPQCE

Substance: porcine brain αβ-tubulins (from UniProt P02550 1-451; Q767L7 1-444) (complex)
- Ki [1]: 500 nM
- Kd [2]: 500 nM
